B1: Liver and lymph node sinusoidal endothelial cell C-type lectin expressed on cells (receptor)
chain: MDTTRYSKWGGSSEEVPGGPWGRWVHWSRRPLFLALAVLVTTVLWAVILSILLSKASTERAALLDGHDLLRTNASKQTAALGALKEEVGDCHSCCSGTQAQLQTTRAELGEAQAKLMEQESALRELRERVTQGLAEAGRGREDVRTELFRALEAVRLQNNSCEPCPTSWLSFEGSCYFFSVPKTTWAAAQDHCADASAHLVIVGGLDEQGFLTRNTRGRGYWLGLRAVRHLGKVQGYQWVDGVSLSFSHWNQGEPNDAWGRENCVMMLHTGLWNDAPCDSEKDGWICEKRHNC
notes: whole, on cells; also called LSECtin; CLEC4G
B2: Liver/lymph node-specific intercellular adhesion molecule-3-grabbing integrin expressed on cells (receptor)
chain: MSDSKEPRVQQLGLLEEDPTTSGIRLFPRDFQFQQIHGHKSSTGCLGHGALVLQLLSFMLLAGVLVAILVQVSKVPSSLSQEQSEQDAIYQNLTQLKAAVGELSEKSKLQEIYQELTQLKAAVGELPEKSKLQEIYQELTRLKAAVGELPEKSKLQEIYQELTRLKAAVGELPEKSKLQEIYQELTRLKAAVGELPEKSKLQEIYQELTELKAAVGELPEKSKLQEIYQELTQLKAAVGELPDQSKQQQIYQELTDLKTAFERLCRHCPKDWTFFQGNCYFMSNSQRNWHDSVTACQEVRAQLVVIKTAEEQNFLQLQTSRSNRFSWMGLSDLNQEGTWQWVDGSPLSPSFQRYWNSGEPNNSGNEDCAEFSGSGWNDNRCDVDNYWICKKPAACFRDE
notes: whole, on cells; also called L-SIGN; CLEC4M
B3: C-type lectin domain family 10 member A expressed on cells (receptor)
chain: MTRTYENFQYLENKVKVQGFKNGPLPLQSLLQRLCSGPCHLLLSLGLGLLLLVIICVVGFQNSKFQRDLVTLRTDFSNFTSNTVAEIQALTSQGSSLEETIASLKAEVEGFKQERQAGVSELQEHTTQKAHLGHCPHCPSVCVPVHSEMLLRVQQLVQDLKKLTCQVATLNNNASTEGTCCPVNWVEHQDSCYWFSHSGMSWAEAEKYCQLKNAHLVVINSREEQNFVQKYLGSAYTWMGLSDPEGAWKWVDGTDYATGFQNWKPGQPDDWQGHGLGGGEDCAHFHPDGRWNDDVCQRPYHWVCEAGLGQTSQESH
notes: whole, on cells; also called CLEC10A
B4: Dendritic cell-specific intercellular adhesion molecule-3-grabbing nonintegrin expressed on cells (receptor)
chain: MSDSKEPRLQQLGLLEEEQLRGLGFRQTRGYKSLAGCLGHGPLVLQLLSFTLLAGLLVQVSKVPSSISQEQSRQDAIYQNLTQLKAAVGELSEKSKLQEIYQELTQLKAAVGELPEKSKLQEIYQELTRLKAAVGELPEKSKLQEIYQELTWLKAAVGELPEKSKMQEIYQELTRLKAAVGELPEKSKQQEIYQELTRLKAAVGELPEKSKQQEIYQELTRLKAAVGELPEKSKQQEIYQELTQLKAAVERLCHPCPWEWTFFQGNCYFMSNSQRNWHDSITACKEVGAQLVVIKSAEEQNFLQLQSSRSNRFTWMGLSDLNQEGTWQWVDGSPLLPSFKQYWNRGEPNNVGEEDCAEFSGNGWNDDKCNLAKFWICKKSAASCSRDEEQFLSPAPATPNPPPA
notes: whole, on cells; also called DC-SIGN; CD209
B5: Asialoglycoprotein Receptor 1 expressed on cells (receptor)
chain: MTKEYQDLQHLDNEESDHHQLRKGPPPPQPLLQRLCSGPRLLLLSLGLSLLLLVVVCVIGSQNSQLQEELRGLRETFSNFTASTEAQVKGLSTQGGNVGRKMKSLESQLEKQQKDLSEDHSSLLLHVKQFVSDLRSLSCQMAALQGNGSERTCCPVNWVEHERSCYWFSRSGKAWADADNYCRLEDAHLVVVTSWEEQKFVQHHIGPVNTWMGLHDQNGPWKWVDGTDYETGFKNWRPEQPDDWYGHGLGGGEDCAHFTDDGRWNDDVCQRPYRWVCETELDKASQEPPLL
notes: whole, on cells; also called ASGR1

Molecular target: T1, S1-69/70 DelFc (SARS-CoV-2, UniProt P0DTC2 14-685)
T1 construct: domain: S1
Assay: Fc-tagged protein on receptor-expressing HEK293T cells (FIG. 13A)

Binder | binding result
B1 | binds
B2 | binds
B3 | binds
B4 | binds
B5 | binds

— patent US20220089695A1 (NEW YORK UNIVERSITY, published 2022)
